From US20260209324A1

Biological target: LFA-1 on immune cells (THP-1 cells, activated T cells) (human) (UniProt P20701)

- adhesion of THP-1 cells on TNF-α stimulated TEC monolayers (% inhibition of adhesion): 55
Substance: human recombinant EDIL3 (from UniProt O43854) (ligand)
